Data: the supplement of paper PMC11316812
± gives the standard deviation of the averaged measurements.

Assays:
hTERT-HMEC = experiment: percentage of EdU-negative (G0-arrested) nuclei per well, 72 h; higher = more G0 arrest; settings: reference: sequence is the full UniProt precursor, the tested protein was the secreted form or ectodomain
MCF7 = experiment: as above; settings: reference: sequence is the full UniProt precursor, the tested protein was the secreted form or ectodomain
[1] = protein concentration 0.00875 µM
[2] = protein concentration 0.0875 µM
[3] = protein concentration 0.0225 µM
[4] = protein concentration 0.0155 µM
[5] = protein concentration 0.0357143 µM
[6] = protein concentration 0.357143 µM
[7] = protein concentration 0.01075 µM
[8] = protein concentration 0.1075 µM
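Further: secreted proteins added to cultured cells, EdU pulse at the end, nuclei found by Hoechst imaging, EdU status from nuclear versus surrounding ring intensity ratio, PBS as neutral control.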

MVPAAGALLWVLLLNLGPRAAGAQGLTQTPTEMQRVSLRFGGPMTRSYRSTARTGLPRKTRIILEDENDAMADADRLAGPAAAELLAATVSTGFSRSSAINEEDGSSEEGVVINAGKDSTSRELPSATPNTAGSSSTRFIANSQEPEIRLTSSLPRSPGRSTEDLPGSQATLSQWSTPGSTPSRWPSPSPTAMPSPEDLRLVLMPWGPWHCHCKSGTMSRSRSGKLHGLSGRLRVGALSQLRTEHKPCTYQQCPCNRLREECPLDTSLCTDTNCASQSTTSTRTTTTPFPTIHLRSSPSLPPASPCPALAFWKRVRIGLEDIWNSLSSVFTEMQPIDRNQR [Q9BUN1]
percentage of EdU-negative (hTERT-HMEC; [1]): 4.62 ± 0.76%
percentage of EdU-negative (hTERT-HMEC; [2]): 10.6 ± 1.3%
percentage of EdU-negative (MCF7; [1]): 25.2 ± 0.46%
percentage of EdU-negative (MCF7; [2]): 26.9 ± 2.7%

MVPEEEPQDREKGLWWFQLKVWSMAVVSILLLSVCFTVSSVVPHNFMYSKTVKRLSKLREYQQYHPSLTCVMEGKDIEDWSCCPTPWTSFQSSCYFISTGMQSWTKSQKNCSVMGADLVVINTREEQDFIIQNLKRNSSYFLGLSDPGGRRHWQWVDQTPYNENVTFWHSGEPNNLDERCAIINFRSSEEWGWNDIHCHVPQKSICKMKKIYI [Q8WTT0]
percentage of EdU-negative (hTERT-HMEC; [3]): 4.78 ± 0.84%
percentage of EdU-negative (hTERT-HMEC; protein concentration 0.225 µM): 4.64 ± 1%
percentage of EdU-negative (MCF7; [3]): 27.712 ± 0.0085%
percentage of EdU-negative (MCF7; protein concentration 0.225 µM): 26.5 ± 0.9%

MVPEVRVLSSLLGLALLWFPLDSHARARPDMFCLFHGKRYSPGESWHPYLEPQGLMYCLRCTCSEGAHVSCYRLHCPPVHCPQPVTEPQQCCPKCVEPHTPSGLRAPPKSCQHNGTMYQHGEIFSAHELFPSRLPNQCVLCSCTEGQIYCGLTTCPEPGCPAPLPLPDSCCQACKDEASEQSDEEDSVQSLHGVRHPQDPCSSDAGRKRGPGTPAPTGLSAPLSFIPRHFRPKGAGSTTVKIVLKEKHKKACVHGGKTYSHGEVWHPAFRAFGPLPCILCTCEDGRQDCQRVTCPTEYPCRHPEKVAGKCCKICPEDKADPGHSEISSTRCPKAPGRVLVHTSVSPSPDNLRRFALEHEASDLVEIYLWKLVKGIFHLTQIKKVRKQDFQKEAQHFRLLAGPHEGHWNVFLAQTLELKVTASPDKVTKT [Q6WN34]
percentage of EdU-negative (hTERT-HMEC; [4]): 5.6 ± 0.62%
percentage of EdU-negative (hTERT-HMEC; protein concentration 0.155 µM): 7.92 ± 0.96%
percentage of EdU-negative (MCF7; [4]): 25.2 ± 1.1%
percentage of EdU-negative (MCF7; protein concentration 0.155 µM): 27.3 ± 1.6%

MVPKLFTSQICLLLLLGLLAVEGSLHVKPPQFTWAQWFETQHINMTSQQCTNAMQVINNYQRRCKNQNTFLLTTFANVVNVCGNPNMTCPSNKTRKNCHHSGSQVPLIHCNLTTPSPQNISNCRYAQTPANMFYIVACDNRDQRRDPPQYPVVPVHLDRII
percentage of EdU-negative (hTERT-HMEC; [5]): 4.435 ± 0.01%
percentage of EdU-negative (hTERT-HMEC; [6]): 5.25 ± 0.32%
percentage of EdU-negative (MCF7; [5]): 24.9 ± 1.8%
percentage of EdU-negative (MCF7; [6]): 27 ± 0.65%

MVPKLFTSQICLLLLLGLMGVEGSLHARPPQFTRAQWFAIQHISLNPPRCTIAMRAINNYRWRCKNQNTFLRTTFANVVNVCGNQSIRCPHNRTLNNCHRSRFRVPLLHCDLINPGAQNISNCTYADRPGRRFYVVACDNRDPRDSPRYPVVPVHLDTTI
percentage of EdU-negative (hTERT-HMEC; protein concentration 0.022 µM): 5.32 ± 0.8%
percentage of EdU-negative (hTERT-HMEC; protein concentration 0.22 µM): 6.25 ± 2.1%
percentage of EdU-negative (MCF7; protein concentration 0.022 µM): 26.3 ± 2.1%
percentage of EdU-negative (MCF7; protein concentration 0.22 µM): 25.35 ± 0.13%

MVPRIFAPAYVSVCLLLLCPREVIAPAGSEPWLCQPAPRCGDKIYNPLEQCCYNDAIVSLSETRQCGPPCTFWPCFELCCLDSFGLTNDFVVKLKVQGVNSQCHSSPISSKCESRRRFP [Q6UWQ7]
percentage of EdU-negative (hTERT-HMEC; [7]): 5.54 ± 1.2%
percentage of EdU-negative (hTERT-HMEC; [8]): 6.18 ± 1.3%
percentage of EdU-negative (MCF7; [7]): 24.7 ± 0.71%
percentage of EdU-negative (MCF7; [8]): 25.6 ± 1.1%

MVPRISAAIFIFELLGSNSEGVTDLRLWLCQPAPRCGEWTYNPLEQCCDDGVILDLNQTRLCGSSCTFWPCFQHCCLESLGSQNQTVVRFKVPGMKPDCKSSPITRICAQEYHPKSPVSRSDLI [Q6B9Z1]
percentage of EdU-negative (hTERT-HMEC; [3]): 4.65 ± 1.1%
percentage of EdU-negative (hTERT-HMEC; protein concentration 0.225 µM): 5.64 ± 0.86%
percentage of EdU-negative (MCF7; [3]): 24.3 ± 0.92%
percentage of EdU-negative (MCF7; protein concentration 0.225 µM): 24.9 ± 0.9%
